Measured values taken from patent US20020155571A1, “Triazine degrading enzymes” (priority 2000, published 2002).

Test: High throughput mass spectrometry screen of triazine hydrolase library against about 15 triazine derivatives
Type: biochemical
[1] = substrate(s) on which the triazine hydrolase library member shows activity, column indicates preferred embodiments and is not exclusive
[2] = Table 5, the value is the triazine substrate the library member (atzA-based variant) is active on, preferred members, not exclusive

B1: 383 (protein)
chain: MQTLSIQHGTLVTMDQYRRVLGDSWVHVQDGRIVALGVHAESVPPPADRVIDARGKVVLPGFINAHTHVNQILLRGGPSHGRQLYDWLFNVLYPGQKAMRPEVAVAVRLYCAEAVRSGITTINEEADSAIYPGNIEAAMAVYGEVGVRVVYARMFFDRMDGRIQGYVDALKARSPQVELCSIMEETAVAKDRITALSDQYHGTAGGRISVWPAPATTTTVTVEGMRWAQAFARDRAVMWTLHMAESDHDERILGWSPAEYMECYGLLDERLQVAHCVYFDRKDVRLLHRHNVKVASQVVSNAYLGSGVAPVPEMVERGMAVGIGTDNNNSCDSVNMIGDMKFMAHIHRAVHRDADVLTPEKILEMATIDGARSLGMDHEIGSIETGKRADLILLDLRHPQTTPHHHLAATIVFQAYGNEVDTVLIDGNVVMENRRLSFLPPERELAFLEEAQSRATAILQRANMVANPAWRSL
Substrate Activity: ametryn (substrate ametryn, preferred substrates, not exclusive): ametryn

B2: 504 (protein)
chain: MQTLSIQHGTLVTMDQYRRVLGDSWVHVQDGRIVALGVHAESVPPPADRVIDARGKVVLPGFINAHTHVNQILLRGGPSHGRQLYDWLFNVVYPGQKAMRPEVAVAVRLYCAEAVRSGITTINEEADSAIYPGNIEAAMAVYGEVGVRVVYARMFFDRMDGRIQGYVDALKARSPQVELCSIMEETAVAKDRITALSDQYHGTAGGRISVWPAPATTTTVTVEGMRWAQAFARDRAVMWTLHMAESDHDERIIGWSPAEYMECYGLLDERLQVAHCVYFDRKDVRLLHRHNVKVASQVVSNAYLGSGVAPVPEMVERGMAVGIGTDNNNSSDSVNMIGDMKFMAHIHRAVHRDADVLTPEKILEMATIDGARSLGMDHEIGSIETGKRADLILLDLRHPQTTPHHHLAATIVFQAYGNEVDTVLIDGNVVMENRRLSFLPPERELAFLEEAQSRATAILQRANMVANPAWRSL
Substrate Activity [1]: propazine

B3: 53 (protein)
chain: MQTLSIQHGTLVTMDQYRRVLGDSWVHVQDGRIVALGVHAESVPPPADRVIDARGKVVLPGFINAHTHVNQILLRGGPSHGRQFYDWLFNVLYPGQKAMRPEVAVAVRLYCAEAVRSGITTINEDADSAIYPGNIEAAMAVYGEVGVRVVYARMFFDRMDGRIQGYVDALKARSPQVELCSIMEETAVAKDRITALSDQYHGTAGGRISVWPAPATTTTVTVEGMRWAQAFARDRAVMWTLHMAESDHDERIIGWSPAEYMECYGLLDERLQVAHCVYFDRKDVRLLHRHNVKVASQVVSNAYLGSGVAPVPEMVERGMAVGIGTDNDNSCDSVNMIGDMKFMAHIHRAVHRDADVLTPEKILEMATIDGARSLGMDHEIGSIETGKRADLILLDLRHPQTTPHHHLAATIVFQAYGNEVDTVLIDGNVVMENRRLSFLPPERELAFLEEAQSRATAILQRANMVANPAWRSL
Substrate Activity [2]: atratone

B4: 482 (protein)
chain: MQTLSIQHGTLVTMDQYRRVLGDSWVHVQDGRIVALGVHAESVPPPADRVIDARGKVVLPGFINAHTHVNQILLRGGPSHGRQLYDWLFNVVYPGQKAMRPEVAVAVRLYCAEAVRSGITTINEEADSAIYPGNIEAAMAVYGEVGVRVVYARMFFDRMDGRIQGYVDALKARSPQVELCSIMEETAVAKDRITALSDQYHGTAGGRISVWPAPATTTPVTVEGMRWAQAFARDRAVMWTLHMAESDHDERIIGGSPAEYMECYGLLDERLQVAHCVYFDRKDVRLLHRHNVKVASQVVSNAYLGSGVAPVPEMVERGMAVGIGTDNDNSSDSVNMIGDMKFMAHIHRAVHRDADVLTPEKILEMATIDGARSLGMDHEIGSIETGKRADLILLDLRHPQTTPHHHLAATIVFQAYGNEVDTVLIDGNVVMENRRLSFLPPERELAFLEEAQSRATAILQRANMVANPAWRSL
Substrate Activity [1]: prometryn

B5: 49 (protein)
chain: MQTLSIQHGTLVTMDQYRRVLGDSWVHVQDGRIVALGVHAESVPPPADRVIDARGKVVLPGFINAHTHVNQILLRGGPSHGRQFYDWLFNVLYPGQKAMRPEVAVAVRLYCAEAVRSGITTINEDADSAIYPGNIEAAMAVYGEVGVRVVYARMFFDRMDGRIQGYVDALKARSPQVELCSIMEETAVAKDRITALSDQYHGTAGGRISVWPAPATTTTVTVEGMRWAQAFARDRAVMWTLHMAESDHDERIIGGSPAEYMECYGLLDERLQVAHCVYFDRKDVRLLHRHNVKVASQVVSNAYLGSGVAPVPEMVERGMAVGIGTDNDNSCDSVNMIGDMKFMAHIHRAVHRDADVLTPEKILEMATIDGARSLGMDHEIGSIETGKRADLILLDLRHPQTTPHHHLAATIVFQAYGNEVDTVLIDGNVVMENRRLSFLPPERELAFLEEAQSRATAILQRANMVANPAWRSL
Substrate Activity [2]: atratone

B6: 498 (protein)
chain: MQTLSIQHGTLVTMDQYRRVLGDSWVHVQDGRIVALGVHAESVPPPADRVIDARGKVVLPGFINAHTHVNQILLRGGPSHGRQLYDWLFNVVYPGQKAMRPEVAVAVRLYCAEAVRSGITTINEEADSAIYPGNIEAAMAVYGEVGVRVVYARMFFDRMDGRIQGYVDALKARSPQVELCSIMEETAVAKDRITALSDQYHGTAGGRISVWPAPATTTTVTVEGMRWAQAFARDRAVMWTLHMAESDHDERIIGGSPAEYMECYGLLDERLQVAHCVYFDRKDVRLLHRHNVKVASQVVSNAYLGSGVAPVPEMVERGMAVGIGTDNDNSSDSVNMIGDMKFMAHIHRAVHRDADVLTPEKILEMATIDGARSLGMDHEIGSIETGKRADLILLDLRHPQTTPHHHLAATIVFQAYGNEVDTVLIDGNVVMENRRLSFLPPERELAFLEEAQSRATAILQRANMVANPAWRSL
Substrate Activity [1]: prometryn

B7: 508 (protein)
chain: MQTLSIQHGTLVTMDQYRRVLGDSWVHVQDGRIVALGVHAESVPPPADRVIDARGKVVLPGFINAHTHVNQILLRGGPSHGRQLYDWLFNVVYPGQKAMRPEVAVAVRLYCAEAVRSGITTINEEADSAIYPGNIEAAMAVYGEVGVRVVYARMFFDRMDGRIQGYVDALKARSPQVELCSIMEETAVAKDRITALSDQYHGTAGGRISVWPAPATTTTVTVEGMRWAQAFARDRAVMWTLHMAESDHDERILGGSPAEYMECYGLLDERLQVAHCVYFDRKDVRLLHRHNVKVASQVVSNAYLGSGVAPVPEMVERGMAVGIGTDNNNSSDSVNMIGDMKFMAHIHRAVHRDADVLTPEKILEMATIDGARSLGMDHEIGSIETGKRADLILLDLRHPQTTPHHHLAATIVFQAYGNEVDTVLIDGNVVMENRRLSFLPPERELAFLEEAQSRATAILQRANMVANPAWRSL
Substrate Activity [1]: propazine

B8: 61 (protein)
chain: MQTLSIQHGTLVTMDQYRRVLGDSWVHVQDGRIVALGVHAESVPPPADRVIDARGKVVLPGFINAHTHVNQILLRGGPSHGRQFYDWLFNVLYPGQKAMRPEVAVAVRLYCAEAVRSGITTINEDADSAIYPGNIEAAMAVYGEVGVRVVYARMFFDRMDGRIQGYVDALKARSPQVELCSIMEETAVAKDRITALSDQYHGTAGGRISVWPAPATTTTVTVEGMRWAQAFARDRAVMWTLHMAESDHDERILGWSPAEYMECYGLLDERLQVAHCVYFDRKDVRLLHRHNVKVASQVVSNAYLGSGVAPVPEMVERGMAVGIGTDNDNSCDSVNMIGDMKFMAHIHRAVHRDADVLTPEKILEMATIDGARSLGMDHEIGSIETGKRADLILLDLRHPQTTPHHHLAATIVFQAYGNEVDTVLIDGNVVMENRRLSFLPPERELAFLEEAQSRATAILQRANMVANPAWRSL
Substrate Activity [2]: atratone

B9: 512 (protein)
chain: MQTLSIQHGTLVTMDQYRRVLGDSWVHVQDGRIVALGVHAESVPPPADRVIDARGKVVLPGFINAHTHVNQILLRGGPSHGRQLYDWLFNVVYPGQKAMRPEVAVAVRLYCAEAVRSGITTINEEADSAIYPGNIEAAMAVYGEVGVRVVYARMFFDRMDGRIQGYVDALKARSPQVELCSIMEETAVAKDRITALSDQYHGTAGGRISVWPAPATTTTVTVEGMRWAQAFARDRAVMWTLHMAESDHDERILGWSPAEYMECYGLLDERLQVAHCVYFDRKDVRLLHRHNVKVASQVVSNAYLGSGVAPVPEMVERGMAVGIGTDNNNSSDSVNMIGDMKFMAHIHRAVHRDADVLTPEKILEMATIDGARSLGMDHEIGSIETGKRADLILLDLRHPQTTPHHHLAATIVFQAYGNEVDTVLIDGNVVMENRRLSFLPPERELAFLEEAQSRATAILQRANMVANPAWRSL
Substrate Activity [1]: propazine

B10: 502 (protein)
chain: MQTLSIQHGTLVTMDQYRRVLGDSWVHVQDGRIVALGVHAESVPPPADRVIDARGKVVLPGFINAHTHVNQILLRGGPSHGRQLYDWLFNVVYPGQKAMRPEVAVAVRLYCAEAVRSGITTINEEADSAIYPGNIEAAMAVYGEVGVRVVYARMFFDRMDGRIQGYVDALKARSPQVELCSIMEETAVAKDRITALSDQYHGTAGGRISVWPAPATTTTVTVEGMRWAQAFARDRAVMWTLHMAESDHDERIIGWSPAEYMECYGLLDERLQVAHCVYFDRKDVRLLHRHNVKVASQVVSNAYLGSGVAPVPEMVERGMAVGIGTDNDNSSDSVNMIGDMKFMAHIHRAVHRDADVLTPEKILEMATIDGARSLGMDHEIGSIETGKRADLILLDLRHPQTTPHHHLAATIVFQAYGNEVDTVLIDGNVVMENRRLSFLPPERELAFLEEAQSRATAILQRANMVANPAWRSL
Substrate Activity [1]: prometryn

B11: 57 (protein)
chain: MQTLSIQHGTLVTMDQYRRVLGDSWVHVQDGRIVALGVHAESVPPPADRVIDARGKVVLPGFINAHTHVNQILLRGGPSHGRQFYDWLFNVLYPGQKAMRPEVAVAVRLYCAEAVRSGITTINEDADSAIYPGNIEAAMAVYGEVGVRVVYARMFFDRMDGRIQGYVDALKARSPQVELCSIMEETAVAKDRITALSDQYHGTAGGRISVWPAPATTTTVTVEGMRWAQAFARDRAVMWTLHMAESDHDERILGGSPAEYMECYGLLDERLQVAHCVYFDRKDVRLLHRHNVKVASQVVSNAYLGSGVAPVPEMVERGMAVGIGTDNDNSCDSVNMIGDMKFMAHIHRAVHRDADVLTPEKILEMATIDGARSLGMDHEIGSIETGKRADLILLDLRHPQTTPHHHLAATIVFQAYGNEVDTVLIDGNVVMENRRLSFLPPERELAFLEEAQSRATAILQRANMVANPAWRSL
Substrate Activity [2]: atratone

B12: 466 (protein)
chain: MQTLSIQHGTLVTMDQYRRVLGDSWVHVQDGRIVALGVHAESVPPPADRVIDARGKVVLPGFINAHTHVNQILLRGGPSHGRQLYDWLFNVVYPGQKAMRPEVAVAVRLYCAEAVRSGITTINEEADSAIYPGNIEAAMAVYGEVGVRVVYARMFFDRMDGRIQGYVDALKARSPQVELCSIMEETAVAKDRITALSDQYHGTAGGRISVWPAPATITTVTVEGMRWAQAFARDRAVMWTLHMAESDHDERIIGGSPAEYMECYGLLDERLQVAHCVYFDRKDVRLLHRHNVKVASQVVSNAYLGSGVAPVPEMVERGMAVGIGTDNDNSSDSVNMIGDMKFMAHIHRAVHRDADVLTPEKILEMATIDGARSLGMDHEIGSIETGKRADLILLDLRHPQTTPHHHLAATIVFQAYGNEVDTVLIDGNVVMENRRLSFLPPERELAFLEEAQSRATAILQRANMVANPAWRSL
Substrate Activity [1]: prometryn
